Values belong to the molecule of their own block, whether it stands above or below them.
Assays:
[1] = molecular target: T1, STAMP (Homo sapiens, UniProt Q6EMB2); assay: siRNA assay: fold repression by GR of AP-1/Luc reporter in U2OS.rGR cells; format: cell-based; conditions: 500 ng siRNA, without HA/STAMP plasmid
T1 construct: Indirect immunofluorescence, using HA-tagged full-length STAMP; expressed in transfected cells; host or cells: U2OS.rGR
Protocol: U2OS.rGR cells were transiently transfected with (FIG. 5E) or without (FIG. 5F) HA/STAMP plasmid (100 ng) and ±500 ng of STAMP siRNA, or β-actin siRNA, plus AP-1/Luc reporter (20 ng) and the Renilla control (10 ng) plasmid. The cells were processed and the fold repression with each treatment was calculated as described in FIG. 5A. The average values were then plotted (±S.E.M., n=4-5 (FIG. 5D) and 7 (FIG. 5E); *, P≦0.032; **, P=0.0022).
Four different siRNA oligonucleotides for STAMP were designed and synthesized by Qiagen:
A control β-actin siRNA was also purchased from Qiagen. U2OS.rGR cells were seeded at 50,000 cells per well in 24 wells plate the day before transfection. DNA (STAMP plasmid and AP-1/Luc reporter; total=150 ng) together with 500 ng siRNA were mixed with 1.6 μl Lipofectamine 2000 (Invitrogen), allowed to stand at room temperature for 15 min, and then added to FBS-free DMEM pre-washed cells. Four hours later, the cells were re-fed with DMEM/10% FBS (containing G418), allowed to recover for 2 h, and re-fed with DMEM/10% FBS (containing G418) containing appropriate hormone dilutions±PMA. The cells were harvested and Luciferase activity was determined as described above in the standard transient transfection studies.

[2] = molecular target: T2, TIF2.4 (Homo sapiens, UniProt Q15596); assay: Cell-free pulldown of [35S]-labeled STAMP constructs by GST/TIF2.4; format: binding; conditions: compared with GST itself
T2 sequence (Q15596 624-1010 limits assumed): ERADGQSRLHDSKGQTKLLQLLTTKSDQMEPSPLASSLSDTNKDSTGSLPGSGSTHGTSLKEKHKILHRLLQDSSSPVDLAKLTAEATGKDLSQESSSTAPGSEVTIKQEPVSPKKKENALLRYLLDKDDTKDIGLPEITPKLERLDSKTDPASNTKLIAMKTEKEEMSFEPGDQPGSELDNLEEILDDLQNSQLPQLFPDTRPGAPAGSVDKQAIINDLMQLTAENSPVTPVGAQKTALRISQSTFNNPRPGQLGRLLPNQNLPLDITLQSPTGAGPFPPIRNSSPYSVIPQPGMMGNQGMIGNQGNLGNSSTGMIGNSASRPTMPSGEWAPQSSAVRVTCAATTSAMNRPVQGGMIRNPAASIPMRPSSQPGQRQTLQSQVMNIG
Description: (§1) FIGS. 7A and 7B illustrate the domains of STAMP that bind to TIF2.4 (FIG. 7A) and GR (FIG. 7B) in cell-free pulldown assays. Bacterially expressed GST-chimeras (GST/TIF2.4 in FIG. 7A and GST/STAMP segments in FIG. 7B) were immobilized on glutathione-Sepharose beads. The [^35S]methionine labeled STAMP fragments (FIG. 7A) or wild type GR (FIG. 7B) that were retained on the matrix by binding to the GST chimeras were separated on SDS PAGE gels and visualized by autoradiography. Specific binding was seen as when the GST/TIF2.4 or GST/STAMP bands were darker than the GST control bands. […] Similar results were obtained in a second experiment.
(§2) Template DNA plasmids (1 μg), 40 μl of Promega TNT (SP6) quick coupled transcription/translation system master mixture, and 2 μl of [^35S]methionine (Amersham Biosciences) were brought up to a total volume of 50 μl with H2O and incubated at 30° C. for 90 min according to the manufacturer's (Promega) recommendations. If hormone stimulation is needed, hormones (Dex, etc) were added into the transcription-translation reaction during the 30° C. incubation to both increase the stability of the synthesized GR and to cause activation of the GR-steroid complexes.
These assays were conducted generally as described (He et al., 2002). Sonicated bacterial lysates (1 ml) containing overexpressed GST, GST/TIF2.4, or GST/STAMP-956C were incubated with 160 μl of glutathione-Sepharose 4B beads for 1 hr at 0° C. The mixture was centrifuged (12,000×g), the supernatant was discarded, and the pellet was washed with phosphate-buffered saline (3×1 ml). Each 20-μl sample of immobilized GST or GST-chimera was then incubated overnight with 10 μl of ^35S-labeled in vitro translation product. The matrix was washed with phosphate-buffered saline (4×1 ml). The immobilized proteins were removed from the beads by heating at 90° C. for 5 min in 20 μl of 2×SDS loading buffer. The proteins were separated on 8-10% SDS-PAGE gels and detected by radio-autoradiography.

[3] = molecular target: T2, TIF2.4; assay: Mammalian two-hybrid assay in CV-1 cells (pFRLuc reporter) with TIF2.4; format: cell-based; parameters: expressed in transfected cells; host or cells: CV-1
Description: FIG. 2A-2C illustrate the isolation and characterization of the partial clone of the protein that binds to TIF2.4. […] Five clones were obtained but only two (clones I and V) contained a protein that was needed for colony growth in the presence of the pSos/TIF2.4 fusion protein. After initial screening, only clone I (also named 6-6CL1) was selected for further investigation. FIG. 2B and FIG. 2C illustrate the selectivity of 6-6CL1 interactions with TIF2.4 in mammalian two-hybrid assays. Triplicate samples of CV-1 cells in 24-well plates were transiently transfected with the indicated GAL-DBD and VP16-AD plasmids along with the GAL4-regulated reporter, pFRLuc. The relative luciferase activity, normalized for the activity of the internal Renilla control, was determined and plotted as the average±S.D. The much lower activity of GAL/TIF2.4m123 was previously shown not to be due to unequal levels of protein expression (He et al., 2002). Similar results were obtained in three additional experiments. FIG. 2D and FIG. 2E provide a comparison of binding to 6-6CL1 by similarly positioned domains of SRC-1 and TIF2. Triplicate samples of CV-1 cells in 24-well plates were analyzed as in (B&C) after being transiently transfected with GAL±6-6CL1 constructs and pFRLuc reporter along with VP16 chimeras of SRC-1 (FIG. 2D) or TIF2 (FIG. 2E) segments. Similar results for SRC-1 were obtained in two additional experiments (ND=not determined). Western blots (FIG. 2F) indicate that the low activity of TIF2(1140C) (see FIG. 1) is not due to inadequate protein expression.
FIGS. 6A and 6B illustrate the domains of STAMP that interact with TIF2.4 (FIG. 6A) and GR (FIG. 6B) in the mammalian two-hybrid assay. […] These CV-1 cells were also transfected with GAL fused to the indicated segments of STAMP along with the FRLuc reporter and Renilla control plasmids. After determining the relative luciferase activities as described in FIG. 2B and 2C, the average values±S.E.M. from 2-5 experiments were plotted. The average fold increase for VP16/TIF2.4 with GAL/STAMP(623-834) in FIG. 6A was 11.0±3.0 (SEM, n=5) above the VP16 control. The values in parentheses above the data bars in FIG. 6B indicate the fold increased interaction ±1 μM Dex.
These assays were conducted as described (He et al., 2002). In particular, the recommended procedure for the Mammalian Matchmaker two-hybrid assay kit (Clontech) was modified slightly by changing from a chloramphenicol acetyltransferase reporter to a Luciferase Reporter pFRLuc (Stratagene), which is under the control of five repeats of the upstream activating sequence for the binding of GAL4.

[4] = molecular target: T3, glucocorticoid receptor (GR) (Rattus norvegicus, UniProt P06536); assay: Cell-free pulldown of [35S]-labeled GR by GST/STAMP segment; format: binding; conditions: with and without steroid
T3 construct: made in house; host or cells: cell-free coupled transcription/translation (Promega TNT SP6); the GST partner was made in E. coli BL21
T3 sequence (P06536 1-795): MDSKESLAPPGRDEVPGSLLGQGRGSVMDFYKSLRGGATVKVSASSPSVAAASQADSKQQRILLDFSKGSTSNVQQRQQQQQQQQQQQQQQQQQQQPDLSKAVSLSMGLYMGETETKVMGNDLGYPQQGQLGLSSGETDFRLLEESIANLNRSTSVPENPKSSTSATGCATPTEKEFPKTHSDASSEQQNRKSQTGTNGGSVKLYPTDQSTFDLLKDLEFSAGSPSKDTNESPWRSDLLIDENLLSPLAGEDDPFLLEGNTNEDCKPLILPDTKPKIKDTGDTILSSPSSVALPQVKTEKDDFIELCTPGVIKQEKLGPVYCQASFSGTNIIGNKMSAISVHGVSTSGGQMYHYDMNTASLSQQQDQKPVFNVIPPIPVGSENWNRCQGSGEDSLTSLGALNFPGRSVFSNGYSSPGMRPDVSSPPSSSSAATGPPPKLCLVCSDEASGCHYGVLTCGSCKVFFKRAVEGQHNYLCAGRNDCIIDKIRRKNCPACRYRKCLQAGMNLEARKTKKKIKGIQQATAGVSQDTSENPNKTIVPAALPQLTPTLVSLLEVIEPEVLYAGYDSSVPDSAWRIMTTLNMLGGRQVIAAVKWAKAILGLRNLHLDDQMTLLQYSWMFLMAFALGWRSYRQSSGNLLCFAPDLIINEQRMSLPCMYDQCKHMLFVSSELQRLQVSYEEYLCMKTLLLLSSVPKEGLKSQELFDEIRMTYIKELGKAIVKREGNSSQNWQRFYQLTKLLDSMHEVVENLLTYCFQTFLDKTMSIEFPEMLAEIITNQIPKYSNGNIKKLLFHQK
T3 sequence (Q6EMB2 960-1281 F1267S partner limits assumed): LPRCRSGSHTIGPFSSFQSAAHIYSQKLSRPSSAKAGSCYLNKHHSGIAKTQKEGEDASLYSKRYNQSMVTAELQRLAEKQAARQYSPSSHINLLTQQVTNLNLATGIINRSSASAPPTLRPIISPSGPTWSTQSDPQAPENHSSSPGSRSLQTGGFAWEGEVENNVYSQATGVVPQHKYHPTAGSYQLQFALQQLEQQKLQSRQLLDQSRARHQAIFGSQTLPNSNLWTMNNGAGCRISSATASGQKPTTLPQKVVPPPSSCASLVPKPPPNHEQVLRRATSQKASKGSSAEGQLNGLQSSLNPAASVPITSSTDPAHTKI
Description: as §1, §2
These assays were conducted generally as described (He et al., 2002). […] The proteins were separated on 8-10% SDS-PAGE gels and detected by radio-autoradiography.

T1 sequence (Q6EMB2 5-1281 A149V/F1267S limits assumed): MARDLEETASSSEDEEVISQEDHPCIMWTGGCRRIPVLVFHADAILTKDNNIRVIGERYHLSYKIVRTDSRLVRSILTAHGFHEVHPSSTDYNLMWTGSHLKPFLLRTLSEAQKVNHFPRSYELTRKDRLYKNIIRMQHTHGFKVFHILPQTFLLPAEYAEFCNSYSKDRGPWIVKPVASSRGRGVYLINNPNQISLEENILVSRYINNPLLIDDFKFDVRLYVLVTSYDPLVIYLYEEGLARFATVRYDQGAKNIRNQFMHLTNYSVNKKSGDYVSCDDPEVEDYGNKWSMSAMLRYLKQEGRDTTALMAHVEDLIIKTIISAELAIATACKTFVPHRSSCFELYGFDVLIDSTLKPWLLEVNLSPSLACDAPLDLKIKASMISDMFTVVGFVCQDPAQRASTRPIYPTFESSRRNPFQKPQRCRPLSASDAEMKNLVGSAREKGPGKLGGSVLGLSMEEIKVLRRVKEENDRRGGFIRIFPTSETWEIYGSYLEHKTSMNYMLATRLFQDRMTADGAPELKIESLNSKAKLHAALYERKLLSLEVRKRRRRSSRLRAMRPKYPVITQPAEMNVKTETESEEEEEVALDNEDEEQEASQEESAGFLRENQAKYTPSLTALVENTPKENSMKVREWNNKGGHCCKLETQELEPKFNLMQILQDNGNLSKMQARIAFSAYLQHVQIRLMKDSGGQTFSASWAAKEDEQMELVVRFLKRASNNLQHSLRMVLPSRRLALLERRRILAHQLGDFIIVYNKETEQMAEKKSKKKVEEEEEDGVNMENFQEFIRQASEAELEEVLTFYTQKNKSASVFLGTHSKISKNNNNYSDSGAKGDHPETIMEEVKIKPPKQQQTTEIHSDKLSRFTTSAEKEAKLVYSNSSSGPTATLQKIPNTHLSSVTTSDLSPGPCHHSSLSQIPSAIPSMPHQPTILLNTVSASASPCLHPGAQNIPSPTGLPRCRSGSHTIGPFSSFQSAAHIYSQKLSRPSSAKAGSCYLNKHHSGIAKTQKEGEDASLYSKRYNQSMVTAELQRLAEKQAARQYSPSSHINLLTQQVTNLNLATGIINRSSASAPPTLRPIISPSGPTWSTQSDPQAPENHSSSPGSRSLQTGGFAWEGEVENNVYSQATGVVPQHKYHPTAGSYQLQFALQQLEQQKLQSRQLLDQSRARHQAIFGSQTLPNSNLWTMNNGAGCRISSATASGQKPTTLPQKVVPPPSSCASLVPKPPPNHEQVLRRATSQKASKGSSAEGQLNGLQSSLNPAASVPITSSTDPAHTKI

Molecule: GAGGGCAATGAGGCCAAAATA (chemistry not given here) [STAMP siRNA #4, siRNA oligonucleotide for STAMP synthesized by Qiagen]
- repressive activity of GR-agonist complexes (endogenous STAMP) [1]: can reduce the repressive activity of GR-agonist complexes

Molecule: CAGCACTGACTATAACCTAAT (chemistry not given here) [STAMP siRNA #3, siRNA oligonucleotide for STAMP synthesized by Qiagen]
- repressive activity of GR-agonist complexes (endogenous STAMP) [1]: can reduce the repressive activity of GR-agonist complexes

- interaction with TIF2.4 [3]: weak response
B1: N623: STAMP fragment amino acids 1-623, TTL domain but not the CID region (protein)
chain: MARDLEETASSSEDEEVISQEDHPCIMWTGGCRRIPVLVFHADAILTKDNNIRVIGERYHLSYKIVRTDSRLVRSILTAHGFHEVHPSSTDYNLMWTGSHLKPFLLRTLSEAQKVNHFPRSYELTRKDRLYKNIIRMQHTHGFKVFHILPQTFLLPAEYAEFCNSYSKDRGPWIVKPVASSRGRGVYLINNPNQISLEENILVSRYINNPLLIDDFKFDVRLYVLVTSYDPLVIYLYEEGLARFATVRYDQGAKNIRNQFMHLTNYSVNKKSGDYVSCDDPEVEDYGNKWSMSAMLRYLKQEGRDTTALMAHVEDLIIKTIISAELAIATACKTFVPHRSSCFELYGFDVLIDSTLKPWLLEVNLSPSLACDAPLDLKIKASMISDMFTVVGFVCQDPAQRASTRPIYPTFESSRRNPFQKPQRCRPLSASDAEMKNLVGSAREKGPGKLGGSVLGLSMEEIKVLRRVKEENDRRGGFIRIFPTSETWEIYGSYLEHKTSMNYMLATRLFQDRMTADGAPELKIESLNSKAKLHAALYERKLLSLEVRKRRRRSSRLRAMRPKYPVITQPAEMNVKTETESEEEEEVALDNEDEEQEASQEESAGFLRENQAKYTPSLTALVE
modifications: GAL4 DBD fusion
notes: STAMP fragment amino acids 1-623, TTL domain but not the CID region
- binding to GST/TIF2.4 [2]: neither the amino terminal (N623) nor the C-terminal (834C) fragments exhibit significantly more binding to GST/TIF2.4 than to GST itself

- binding of full length GR [4]: this binding is steroid-independent
B2: GST/STAMP(956C): GST chimera of STAMP fragment amino acids 956 to 1277 (protein)
chain: T3 sequence (Q6EMB2 960-1281 F1267S partner limits assumed)
modifications: GST fusion

Source: patent publication US7867500B2, “Cofactor that modulates steroid receptor activities” (The United States of America as represented by the …, priority 2004, dated 2011)
